Source: patent US7255862

Assays:
[1] = molecular target: feline immunodeficiency virus (FIV) Gag, Villefranche strain, expressed by ALVAC recombinants (vCP21 (feline immunodeficiency virus, Villefranche strain)); assay: sandwich kinetic ELISA, plate coated with pooled FIV gag-specific MAb 2 ug/well, gag lysate 5 ug/well, control rabbit serum 1:100
[2] = molecular target: feline immunodeficiency virus (FIV) Gag, Villefranche strain, expressed by ALVAC recombinants (vCP21 (feline immunodeficiency virus, Villefranche strain)); assay: sandwich kinetic ELISA, plate coated with pooled FIV env-specific MAb 2 ug/well (mismatched capture control), gag lysate 1 ug/well, control rabbit serum 1:100
[3] = molecular target: feline immunodeficiency virus (FIV) Gag, Villefranche strain, expressed by ALVAC recombinants (vCP21 (feline immunodeficiency virus, Villefranche strain)); assay: sandwich kinetic ELISA, plate coated with pooled FIV env-specific MAb 2 ug/well (mismatched capture control), gag lysate 5 ug/well, control rabbit serum 1:100
[4] = molecular target: feline immunodeficiency virus (FIV) Gag, Villefranche strain, expressed by ALVAC recombinants (vCP21 (feline immunodeficiency virus, Villefranche strain)); assay: sandwich kinetic ELISA, plate coated with pooled FIV env-specific MAb 2 ug/well (mismatched capture control), gag lysate 0.2 ug/well, control rabbit serum 1:100
[5] = molecular target: feline immunodeficiency virus (FIV) Gag, Villefranche strain, expressed by ALVAC recombinants (vCP21 (feline immunodeficiency virus, Villefranche strain)); assay: sandwich kinetic ELISA, plate coated with pooled FIV gag-specific MAb 2 ug/well, gag lysate 1 ug/well, control rabbit serum 1:100
[6] = molecular target: feline immunodeficiency virus (FIV) Gag, Villefranche strain, expressed by ALVAC recombinants (vCP21 (feline immunodeficiency virus, Villefranche strain)); assay: sandwich kinetic ELISA, plate coated with pooled FIV gag-specific MAb 2 ug/well, gag lysate 0.2 ug/well, control rabbit serum 1:100

Substance: Rabbit A039 prebleed serum
- KELISA (mOD/min) [1]: 1 mOD/min
- KELISA (mOD/min) [2]: 0.8 mOD/min
- KELISA (mOD/min) [3]: 1 mOD/min
- KELISA (mOD/min) [4]: 0.9 mOD/min
- KELISA (mOD/min) [5]: 1.2 mOD/min
- KELISA (mOD/min) [6]: 1.3 mOD/min
